Results from patent US20240247063A1 (Janssen / Centocor, published 2024).
“And” between values parts separate entries of the source, which are not always exact repeats. Equal values may be shown once.

B1: VB11 (anti-Vβ17/anti-CD123) bispecific antibody (bispecific antibody, human IgG4 S228P, kappa, F234A L235A)
heavy 1: QVQLQESGPGLVKPSETLSLTCTVSGYSITSGYFWNWIRQPPGKGLEWIGYISYDGSNNYNPSLKSRVTISRDTSKNQFSLKLSSVTAADTAVYYCASPSPGTGYAVDYWGQGTLVTVSSASTKGPSVFPLAPCSRSTSESTAALGCLVKDYFPEPVTVSWNSGALTSGVHTFPAVLQSSGLYSLSSVVTVPSSSLGTKTYTCNVDHKPSNTKVDKRVESKYGPPCPPCPAPEAAGGPSVFLFPPKPKDTLMISRTPEVTCVVVDVSQEDPEVQFNWYVDGVEVHNAKTKPREEQFNSTYRVVSVLTVLHQDWLNGKEYKCKVSNKGLPSSIEKTISKAKGQPREPQVYTLPPSQEEMTKNQVSLSCAVKGFYPSDIAVEWESNGQPENNYKTTPPVLDSDGSFFLVSRLTVDKSRWQEGNVFSCSVMHEALHNRFTQKSLSLSLGK
light 1: DIQMTQSPSSLSASVGDRVTITCRSSQSLVHSNGNTYLHWYQQKPGKAPKFLIYKVSNRFSGVPSRFSGSGSGTDFTLTISSLQPEDFATYYCSQSTHVPFTFGQGTKLEIKRTVAAPSVFIFPPSDEQLKSGTASVVCLLNNFYPREAKVQWKVDNALQSGNSQESVTEQDSKDSTYSLSSTLTLSKADYEKHKVYACEVTHQGLSSPVTKSFNRGEC
heavy 2: EVQLVQSGAEVKKPGESLKISCKGSGYSFTSYWISWVRQMPGKGLEWMGIIDPSDSDTRYSPSFQGQVTISADKSISTAYLQWSSLKASDTAMYYCARGDGSTDLDYWGQGTLVTVSSASTKGPSVFPLAPCSRSTSESTAALGCLVKDYFPEPVTVSWNSGALTSGVHTFPAVLQSSGLYSLSSVVTVPSSSLGTKTYTCNVDHKPSNTKVDKRVESKYGPPCPPCPAPEAAGGPSVFLFPPKPKDTLMISRTPEVTCVVVDVSQEDPEVQFNWYVDGVEVHNAKTKPREEQFNSTYRVVSVLTVLHQDWLNGKEYKCKVSNKGLPSSIEKTISKAKGQPREPQVYTLPPSQEEMTKNQVSLWCLVKGFYPSDIAVEWESNGQPENNYKTTPPVLDSDGSFFLYSRLTVDKSRWQEGNVFSCSVMHEALHNHYTQKSLSLSLGK
light 2: EIVLTQSPGTLSLSPGERATLSCRASQSVSSSYLAWYQQKPGQAPRLLIYGASSRATGIPDRFSGSGSGTDFTLTISRLEPEDFAVYYCQQDYGFPWTFGQGTKVEIKRTVAAPSVFIFPPSDEQLKSGTASVVCLLNNFYPREAKVQWKVDNALQSGNSQESVTEQDSKDSTYSLSSTLTLSKADYEKHKVYACEVTHQGLSSPVTKSFNRGEC
B2: VB13 (Vβ17×Null) bispecific antibody (bispecific antibody, human IgG4 S228P, kappa, F234A L235A)
heavy 1: QVQLQESGPGLVKPSETLSLTCTVSGYSITSGYFWNWIRQPPGKGLEWIGYISYDGSNNYNPSLKSRVTISRDTSKNQFSLKLSSVTAADTAVYYCASPSPGTGYAVDYWGQGTLVTVSSASTKGPSVFPLAPCSRSTSESTAALGCLVKDYFPEPVTVSWNSGALTSGVHTFPAVLQSSGLYSLSSVVTVPSSSLGTKTYTCNVDHKPSNTKVDKRVESKYGPPCPPCPAPEAAGGPSVFLFPPKPKDTLMISRTPEVTCVVVDVSQEDPEVQFNWYVDGVEVHNAKTKPREEQFNSTYRVVSVLTVLHQDWLNGKEYKCKVSNKGLPSSIEKTISKAKGQPREPQVYTLPPSQEEMTKNQVSLSCAVKGFYPSDIAVEWESNGQPENNYKTTPPVLDSDGSFFLVSRLTVDKSRWQEGNVFSCSVMHEALHNRFTQKSLSLSLGK
light 1: DIQMTQSPSSLSASVGDRVTITCRSSQSLVHSNGNTYLHWYQQKPGKAPKFLIYKVSNRFSGVPSRFSGSGSGTDFTLTISSLQPEDFATYYCSQSTHVPFTFGQGTKLEIKRTVAAPSVFIFPPSDEQLKSGTASVVCLLNNFYPREAKVQWKVDNALQSGNSQESVTEQDSKDSTYSLSSTLTLSKADYEKHKVYACEVTHQGLSSPVTKSFNRGEC
heavy 2: not shown
light 2: not shown
notes: Knob-into-hole human IgG4; also called Vβ17XNULL; V 17 null control bispecific
B3: VB17B25 (PSMB410 × B17B21-N33S) (bispecific antibody, human IgG1, kappa, L234A L235A)
chain: not shown
heavy: QVQLQESGPGLVKPSETLSLTCTVSGYSITSGYFWNWIRQPPGKGLEWIGYISYDGSNNYNPSLKSRVTISRDTSKNQFSLKLSSVTAADTAVYYCASPSPGTGYAVDYWGQGTLVTVSSASTKGPSVFPLAPSSKSTSGGTAALGCLVKDYFPEPVTVSWNSGALTSGVHTFPAVLQSSGLYSLSSVVTVPSSSLGTQTYICNVNHKPSNTKVDKKVEPKSCDKTHTCPPCPAPEAAGGPSVFLFPPKPKDTLMISRTPEVTCVVVSVSHEDPEVKFNWYVDGVEVHNAKTKPREEQYNSTYRVVSVLTVLHQDWLNGKEYKCKVSNKALPAPIEKTISKAKGQPREPQVYTLPPSREEMTKNQVSLSCAVKGFYPSDIAVEWESNGQPENNYKTTPPVLDSDGSFFLVSKLTVDKSRWQQGNVFSCSVMHEALHNRFTQKSLSLSPGK
light: DIQMTQSPSSLSASVGDRVTITCRSSQSLVHSSGNTYLHWYQQKPGKAPKFLIYKVSNRFSGVPSRFSGSGSGTDFTLTISSLQPEDFATYYCSQSTHVPFTFGQGTKLEIKRTVAAPSVFIFPPSDEQLKSGTASVVCLLNNFYPREAKVQWKVDNALQSGNSQESVTEQDSKDSTYSLSSTLTLSKADYEKHKVYACEVTHQGLSSPVTKSFNRGEC
notes: First chain is the PSMB410 scFv-Fc; also called Vβ17B25; Vβ17×PSMA

Legend:
[1] = molecular target: T1, T Cell Receptor Beta Variable 17 (Vβ17) on the surface of human T cells (human); test: flow cytometry, binding to CD8+ T cells isolated from PBMCs, donor HPU 08694
T1 construct: whole, on cells; Polyclonal Vβ17+ T cells of donors; also called V 17; Vb17
T1 sequence (A0A075B6N1 22-114): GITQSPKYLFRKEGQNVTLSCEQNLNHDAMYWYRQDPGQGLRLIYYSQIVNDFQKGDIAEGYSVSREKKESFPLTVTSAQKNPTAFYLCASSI

[2] = molecular target: T1, T Cell Receptor Beta Variable 17 (Vβ17) …; test: flow cytometry, CD8+ T cells from Vβ17 non-depleted PBMCs
[3] = molecular target: T1, T Cell Receptor Beta Variable 17 (Vβ17) …; test: flow cytometry, FLU MP 58-stimulated enriched CD8+ T cells, anti-human IgG4 Fc-PE
Description: Mouse anti-human IgG4 Fc-PE secondary antibody was used to detect the bispecific antibody.
Bispecific antibody binding affinities to CD8+ T cell were determined by flow cytometry.

[4] = molecular target: T1, T Cell Receptor Beta Variable 17 (Vβ17) …; test: flow cytometry, binding to CD8+ T cells isolated from PBMCs (only the Vβ17 non-depleted curve rises)
[5] = molecular target: T1, T Cell Receptor Beta Variable 17 (Vβ17) …; test: flow cytometry, binding to CD8+ T cells isolated from PBMCs, donor HPU 09381
[6] = molecular target: T1, T Cell Receptor Beta Variable 17 (Vβ17) …; test: flow cytometry, binding to CD8+ T cells isolated from PBMCs, donor D203517
[7] = molecular target: T2, CD123 on Kasumi-3 AML cells (human, UniProt P26951 19-378); test: flow cytometry, binding to Kasumi3 AML cells
T2 construct: whole, on cells; also called interleukin-3 receptor; IL-3R
T2 sequence (P26951 19-378): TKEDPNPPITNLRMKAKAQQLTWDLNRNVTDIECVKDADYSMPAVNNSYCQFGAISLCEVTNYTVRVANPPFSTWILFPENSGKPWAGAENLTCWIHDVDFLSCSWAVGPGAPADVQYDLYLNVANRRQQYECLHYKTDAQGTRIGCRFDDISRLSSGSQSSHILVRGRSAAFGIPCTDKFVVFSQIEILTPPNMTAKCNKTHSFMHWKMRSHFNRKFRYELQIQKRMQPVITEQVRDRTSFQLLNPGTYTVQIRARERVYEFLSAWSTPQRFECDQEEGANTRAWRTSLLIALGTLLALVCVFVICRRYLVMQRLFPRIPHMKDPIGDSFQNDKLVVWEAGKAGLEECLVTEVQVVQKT

[8] = molecular target: T1, T Cell Receptor Beta Variable 17 (Vβ17) …; test: flow cytometry, % binding, pan T cells of donor NHV21-07174
Description: (§1) Binding assay was done with isolated Pan T cells from 2 donors. Pan T cells were isolated from Whole PBMCs. 1 μL Live dead (1:1000 diluted) and Fc Block 2 μL/well was added. 100 μL of the cell suspension was seeded in 96 well V bottom plate at 100,000 cell per well and incubated for 10 minutes at 4° C. The plate was washed by adding 190 μL FACS buffer spun at 1500 rpm for 5 minutes. 100 μL diluted test antibodies was added to the plate and the plate was incubated at 37° C. 5% CO₂ for 45 minutes. Wash step was repeated. 100 μL diluted Secondary antibody (0.5 μL/well in 100 μL FACS buffer) was added and the plate was incubated at 4° C. for 45 minutes. Wash step was repeated. 100 μL cytofix was added to the pellet and the plate was incubated at 4° C. for 10 minutes. Wash step was repeated. 100 μL FACS buffer was added to the pellet and sample was analyzed by Flow cytometry. Cells were gated on FSC/SSC, followed by live cell gating.

[9] = molecular target: T3, prostate-specific membrane antigen (PSMA) on C4-2B cells (human, UniProt Q04609 1-750); test: flow cytometry on C4-2B cells, APC secondary antibody
T3 construct: whole, on cells
T3 sequence (Q04609 whole entry): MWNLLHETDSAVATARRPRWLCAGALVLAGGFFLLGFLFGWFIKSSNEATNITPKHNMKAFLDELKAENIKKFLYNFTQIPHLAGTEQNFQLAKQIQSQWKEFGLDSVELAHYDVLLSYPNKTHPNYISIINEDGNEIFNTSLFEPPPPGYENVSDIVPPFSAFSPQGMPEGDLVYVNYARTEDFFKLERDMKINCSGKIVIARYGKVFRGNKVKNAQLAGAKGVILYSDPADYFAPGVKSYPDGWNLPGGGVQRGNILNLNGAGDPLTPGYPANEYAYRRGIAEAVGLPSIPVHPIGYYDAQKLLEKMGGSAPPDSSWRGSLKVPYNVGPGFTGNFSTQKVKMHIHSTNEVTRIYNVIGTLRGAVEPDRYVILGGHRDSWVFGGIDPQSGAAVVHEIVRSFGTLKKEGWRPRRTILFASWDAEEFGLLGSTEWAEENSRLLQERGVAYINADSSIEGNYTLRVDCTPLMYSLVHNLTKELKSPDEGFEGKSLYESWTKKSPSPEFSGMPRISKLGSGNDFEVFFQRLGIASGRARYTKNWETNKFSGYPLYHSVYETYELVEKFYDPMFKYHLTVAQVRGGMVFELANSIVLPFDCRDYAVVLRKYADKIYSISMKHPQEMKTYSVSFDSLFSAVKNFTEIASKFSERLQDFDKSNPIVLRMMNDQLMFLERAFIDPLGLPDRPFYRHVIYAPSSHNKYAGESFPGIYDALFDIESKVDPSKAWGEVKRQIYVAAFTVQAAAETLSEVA
Description: The C4-2B cells were centrifuged and re-suspended in DPBS and counted. 4 million cells were re-suspended in 8 mL of DPBS and 8 μL of Violet Fluorescent Dye was added and incubated for 15 min. in 4° C. Eight milliliters FACS buffer was added to neutralize mix and 200 μL per well was seeded. The plate was centrifuged and re-suspended in 100 μL of antibody dilutions accordingly and incubated for 30 min. in incubator. 10 μg/mL conc. of each antibodies were prepared in 200 μL stock and further diluted to 8 points by adding 60 μL to 120 μL of FACS serially buffer to get 3-fold dilution. 100 μL of FACS buffer were added to each well, centrifuged, re-suspended in 100 μL FACS buffer with 0.5 μL/well con. Secondary antibody tagged with APC & incubated for 30 min. 4° C. Next, 100 μL of FACS buffer was added to each well, centrifuged, re-suspended in 100 μL BD Cytofix & incubated for 10 min. 4° C. 100 μL of FACS buffer were added to each well, centrifuged, re-suspended in 100 μL FACS buffer, stored at 4° C. Data was acquired in Flow cytometer and the data was analyzed.

[10] = molecular target: T1, T Cell Receptor Beta Variable 17 (Vβ17) …; test: flow cytometry, MFI, pan T cells of donor NHV21-07171
Description: as §1

[11] = molecular target: T1, T Cell Receptor Beta Variable 17 (Vβ17) …; test: flow cytometry, MFI, pan T cells of donor NHV21-07174
Description: as §1

[12] = molecular target: T1, T Cell Receptor Beta Variable 17 (Vβ17) …; test: flow cytometry, % binding, pan T cells of donor NHV21-07171
Description: as §1

Binder | EC50 [1] | EC50 (read off the curve) [1] | EC50 (read off the curve) [2] | EC50 [3] | EC50 [4] | EC50 [5] | EC50 (read off the curve) [5] | EC50 [6] | EC50 (read off the curve) [6] | binding result [7] | EC50 [8] | EC50 [9] | EC50 [10] | EC50 [11] | EC50 [12]
B1 | 1.9 nM | ~0.2 µg/mL | ~0.2 µg/mL | 1.35 µg/mL and 9 nM | 12.2 nM | 0.8 nM | ~0.1 µg/mL | 1.26 nM | ~0.2 µg/mL | – | – | – | – | – | –
B2 | 1.5 nM | ~0.3 µg/mL | ~0.3 µg/mL | 2.8 µg/mL and 18.7 nM | 12.6 nM | 1.5 nM | ~0.2 µg/mL | 1.4 nM | ~0.2 µg/mL | no binding (tested: about 20 µg/mL) | – | – | – | – | –
B3 | – | – | – | – | – | – | – | – | – | – | 0.2 µg/mL | 2.1 µg/mL | 1.5 µg/mL | ~3 µg/mL | 0.3 µg/mL
